Legend:
[1] = target: T1, MT1-MMP (MMP-14) catalytic domain (UniProt P50281 112-284, limits assumed); assay: cell-based or functional assay
[2] = target: TNF-alpha-converting enzyme (TACE, ADAM-17) (UniProt P78536 215-671, limits assumed); assay: cell-based or functional assay
[3] = target: T1, MT1-MMP (MMP-14) catalytic domain; assay: in-vitro fluorescence enzymatic activity assay with peptide substrate
[4] = target: T2, MMP-9 catalytic domain (recombinant catalytic fragment without the hemopexin and pro domain, APMA activated) (human, UniProt P14780 20-707); assay: inhibition of fluorogenic peptide cleavage, fit assuming competitive inhibition; MMP-9 catalytic domain (FIG. 5)
T2 construct: domain: catalytic fragment (without the hemopexin and pro domain); also called MMP-9 recombinant catalytic fragment; MMP9 catalytic fragment
T2 sequence (P14780 20-707): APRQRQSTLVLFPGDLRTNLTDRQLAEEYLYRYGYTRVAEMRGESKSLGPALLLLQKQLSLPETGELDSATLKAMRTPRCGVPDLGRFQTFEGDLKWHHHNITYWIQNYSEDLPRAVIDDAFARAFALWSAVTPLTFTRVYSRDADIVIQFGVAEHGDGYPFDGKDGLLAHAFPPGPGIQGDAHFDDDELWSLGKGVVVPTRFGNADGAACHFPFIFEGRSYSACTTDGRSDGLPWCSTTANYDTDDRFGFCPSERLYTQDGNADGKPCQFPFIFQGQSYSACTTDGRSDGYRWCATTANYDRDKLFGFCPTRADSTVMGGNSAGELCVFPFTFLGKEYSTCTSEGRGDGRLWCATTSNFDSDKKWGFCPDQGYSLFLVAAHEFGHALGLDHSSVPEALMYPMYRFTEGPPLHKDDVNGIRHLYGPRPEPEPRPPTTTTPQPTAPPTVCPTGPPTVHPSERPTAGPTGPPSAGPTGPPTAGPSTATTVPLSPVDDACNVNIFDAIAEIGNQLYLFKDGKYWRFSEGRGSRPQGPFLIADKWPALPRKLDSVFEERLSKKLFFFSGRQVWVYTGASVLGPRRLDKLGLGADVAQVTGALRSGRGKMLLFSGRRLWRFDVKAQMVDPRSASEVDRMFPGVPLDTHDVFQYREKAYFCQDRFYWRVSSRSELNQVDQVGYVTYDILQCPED

[5] = target: T1, MT1-MMP (MMP-14) catalytic domain; assay: inhibition of fluorogenic peptide cleavage, fit to competitive inhibition; catalytic domain of MT1-MMP (FIG. 12B)
[6] = target: T3, full length APMA activated MMP-2 (human) (human, UniProt P08253 110-660); assay: inhibition of fluorogenic peptide cleavage, fit assuming competitive inhibition; full length APMA activated MMP-2 (FIG. 5)
T3 construct: mature; Active enzyme lacking the pro domain; also called full length MMP2 purified from Hila cells; active MMP-2
T3 sequence (looked up): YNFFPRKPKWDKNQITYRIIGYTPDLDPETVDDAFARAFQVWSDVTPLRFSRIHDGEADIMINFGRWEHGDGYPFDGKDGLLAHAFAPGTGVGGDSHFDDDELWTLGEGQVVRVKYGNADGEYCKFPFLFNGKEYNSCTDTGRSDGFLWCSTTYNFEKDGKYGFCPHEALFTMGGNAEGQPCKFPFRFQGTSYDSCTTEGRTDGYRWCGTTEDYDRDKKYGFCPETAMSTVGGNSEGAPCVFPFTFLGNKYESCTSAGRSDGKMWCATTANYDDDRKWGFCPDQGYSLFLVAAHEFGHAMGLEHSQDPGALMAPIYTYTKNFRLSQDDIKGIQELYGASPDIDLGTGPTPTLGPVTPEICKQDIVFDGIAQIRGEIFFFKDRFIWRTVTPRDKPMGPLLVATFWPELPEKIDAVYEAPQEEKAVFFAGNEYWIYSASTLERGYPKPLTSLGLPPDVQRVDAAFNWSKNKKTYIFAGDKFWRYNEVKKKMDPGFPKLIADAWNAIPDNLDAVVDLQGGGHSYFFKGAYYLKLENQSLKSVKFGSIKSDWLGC

[7] = target: T2, MMP-9 catalytic domain (recombinant …); assay: inhibition of fluorogenic peptide cleavage, fit to competitive inhibition; MMP-9 recombinant catalytic fragment (FIG. 12A)
[8] = target: T3, full length APMA activated MMP-2 (human); assay: inhibition of fluorogenic peptide cleavage, fit to competitive inhibition; full length MMP2 purified from HeLa cells (FIG. 12B)
[9] = target: MMP-2 (active; construct not stated at that place) (Mus musculus (Mouse), UniProt P33434 110-467, catalytic and structural zinc and calcium ions are bound; the letters cannot show them); assay: cell-based or functional assay
[10] = target: T4, MMP-2 catalytic domain (MMP-2cat), amino acids 110-467 of GenBank NP-032636.1 (UniProt P33434 110-467); assay: enzyme kinetics with fluorogenic peptide substrate, Lineweaver-Burk plot, competitive inhibition; MMP-2cat (FIG. 4A)
T4 construct: range 110-467; also called MMP2 catalytic fragment; recombinant MMP-2 catalytic domain

[11] = target: T5, full length APMA activated MMP-9 (human) (human, UniProt P14780 107-707); assay: enzyme kinetics with fluorogenic peptide substrate, Lineweaver-Burk plot, competitive inhibition; full length APMA activated MMP-9 (FIG. 4B)
T5 construct: mature; Active enzyme lacking the pro domain; also called active MMP-9 (full length)
T5 sequence (P14780 107-707): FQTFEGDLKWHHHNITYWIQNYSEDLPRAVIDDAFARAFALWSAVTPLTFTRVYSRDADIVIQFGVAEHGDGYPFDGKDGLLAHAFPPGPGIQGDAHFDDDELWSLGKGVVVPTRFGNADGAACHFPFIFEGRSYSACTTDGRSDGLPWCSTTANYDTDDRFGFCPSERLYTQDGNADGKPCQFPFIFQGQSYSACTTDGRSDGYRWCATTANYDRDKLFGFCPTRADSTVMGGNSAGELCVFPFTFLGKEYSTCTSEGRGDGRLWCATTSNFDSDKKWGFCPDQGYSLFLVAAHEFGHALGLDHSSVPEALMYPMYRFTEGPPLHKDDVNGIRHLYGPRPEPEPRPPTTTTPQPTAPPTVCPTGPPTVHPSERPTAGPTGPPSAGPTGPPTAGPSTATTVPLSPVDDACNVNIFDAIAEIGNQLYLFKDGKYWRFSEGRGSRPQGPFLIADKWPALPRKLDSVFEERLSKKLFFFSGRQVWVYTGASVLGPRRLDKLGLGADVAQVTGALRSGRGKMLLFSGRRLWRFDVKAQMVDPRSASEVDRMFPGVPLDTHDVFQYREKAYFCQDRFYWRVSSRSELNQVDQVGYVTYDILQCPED

TNF-alpha-converting enzyme (TACE, ADAM-17), sequence (P78536 215-671 limits assumed): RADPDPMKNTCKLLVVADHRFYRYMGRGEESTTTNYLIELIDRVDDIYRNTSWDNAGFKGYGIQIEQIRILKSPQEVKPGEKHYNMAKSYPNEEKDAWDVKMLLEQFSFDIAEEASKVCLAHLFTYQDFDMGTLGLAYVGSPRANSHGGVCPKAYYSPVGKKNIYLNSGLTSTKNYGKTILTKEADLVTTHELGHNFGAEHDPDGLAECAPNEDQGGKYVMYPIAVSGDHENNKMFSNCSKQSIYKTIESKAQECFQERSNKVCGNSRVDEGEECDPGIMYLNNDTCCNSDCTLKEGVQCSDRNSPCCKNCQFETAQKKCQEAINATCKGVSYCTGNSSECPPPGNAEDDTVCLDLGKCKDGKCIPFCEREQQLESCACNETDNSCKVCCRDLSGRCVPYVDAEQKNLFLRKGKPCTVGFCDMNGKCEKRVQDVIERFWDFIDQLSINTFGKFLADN

B1: 6C6 monoclonal antibody (anti Imisdp mAb) (antibody, V domains shown)
VH: CGGGLVKPGGSLKLSCAASGFAFSTYDMETSWIRQTPEKRLEWVATISSGGSCYTYYPDSVKGRFTISKDNARNTLYLQMETSSLRSGDTALYYCTRFRYDGWYFDVWGQG
VL: CMETTQTPLSLPVSLGDQASISCRSSQSIVHSNGNTFLEWYLQKPGQSPKLLIYKVSNCRFSGVPDRFSGSGSGTDFTLKISRVEAEDLGVYYCFQASHVPPTFGGG
[1]
  IC50 µM, inhibition of fluorogenic peptide cleavage: 14.4 µM
[2]
  IC50 µM, inhibition of fluorogenic peptide cleavage: > 30 µM
[3]
  Ki: 10 µM
[4]
  Ki: 5.8 µM
[5]
  Ki: 14.4 µM
[6]
  Ki: 3 µM
[7]
  Ki: 1 µM
[8]
  Ki: 1.4 µM

B2: 13E11 monoclonal antibody (anti CoTCPP mAb) (antibody, V domains shown)
VH: EGGGLVQPGGSRKLSCAASGFTFTSFGMHWVRQAPEKGLEWVAYISSGNEIIYYADTVKGRFTISRDNPKNTLFLQMTSLRSEDTAMYYCARNYYRYGFYVMDYWGQG
VL: EIVVTQSPAILSASPGEKVTMTCRASSSVSYMHWYQQKPGSSPKPWIYATSNELASGVPARFSGSGSGTSYSLTISRVEAEDAATYYCQQWISNPLTFGAG
[1]
  IC50 µM, inhibition of fluorogenic peptide cleavage: > 30 µM
[2]
  IC50 µM, inhibition of fluorogenic peptide cleavage: > 30 µM
[9]
  IC50 µM, inhibition of fluorogenic peptide cleavage: 24 µM
[10]
  Ki: 24 µM
[11]
  Ki: 13 µM
